Experimental data reported in patent US20240124865.

Target: T1, FRETS-VWF73 substrate (VWF fragment comprising VWFA2 domain residues 1596 to 1668)
T1 chain: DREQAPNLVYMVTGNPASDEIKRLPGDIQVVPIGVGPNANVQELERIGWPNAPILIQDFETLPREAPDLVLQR

B1: ADAMTS13 A1144I variant (Exemplified A1144I variant) (protein)
chain: AAGGILHLELLVAVGPDVFQAHQEDTERYVLTNLNIGAELLRDPSLGAQFRVHLVKMVILTEPEGAPNITANLTSSLLSVCGWSQTINPEDDTDPGHADLVLYITRFDLELPDGNRQVRGVTQLGGACSPTWSCLITEDTGFDLGVTIAHEIGHSFGLEHDGAPGSGCGPSGHVMASDGAAPRAGLAWSPCSRRQLLSLLSAGRARCVWDPPRPQPGSAGHPPDAQPGLYYSANEQCRVAFGPKAVACTFAREHLDMCQALSCHTDPLDQSSCSRLLVPLLDGTECGVEKWCSKGRCRSLVELTPIAAVHGRWSSWGPRSPCSRSCGGGVVTRRRQCNNPRPAFGGRACVGADLQAEMCNTQACEKTQLEFMSQQCARTDGQPLRSSPGGASFYHWGAAVPHSQGDALCRHMCRAIGESFIMKRGDSFLDGTRCMPSGPREDGTLSLCVSGSCRTFGCDGRMDSQQVWDRCQVCGGDNSTCSPRKGSFTAGRAREYVTFLTVTPNLTSVYIANHRPLFTHLAVRIGGRYVVAGKMSISPNTTYPSLLEDGRVEYRVALTEDRLPRLEEIRIWGPLQEDADIQVYRRYGEEYGNLTRPDITFTYFQPKPRQAWVWAAVRGPCSVSCGAGLRWVNYSCLDQARKELVETVQCQGSQQPPAWPEACVLEPCPPYWAVGDFGPCSASCGGGLRERPVRCVEAQGSLLKTLPPARCRAGAQQPAVALETCNPQPCPARWEVSEPSSCTSAGGAGLALENETCVPGADGLEAPVTEGPGSVDEKLPAPEPCVGMSCPPGWGHLDATSAGEKAPSPWGSIRTGAQAAHVWTPAAGSCSVSCGRGLMELRFLCMDSALRVPVQEELCGLASKPGSRREVCQAVPCPARWQYKLAACSVSCGRGVVRRILYCARAHGEDDGEEILLDTQCQGLPRPEPQEACSLEPCPPRWKVMSLGPCSASCGLGTARRSVACVQLDQGQDVEVDEAACAALVRPEASVPCLIADCTYRWHVGTWMECSVSCGDGIQRRRDTCLGPQAQAPVPADFCQHLPKPVTVRGCWAGPCVGQGTPSLVPHEEIAAPGRTTATPAGASLEWSQARGLLFSPAPQPRRLLPGPQENSVQSSACGRQHLEPTGTIDMRGPGQADCAVAIGRPLGEVVTLRVLESSLNCSAGDMLLLWGRLTWRKMCRKLLDMTFSSKTNTLVVRQRCGRPGGGVLLRYGSQLAPETFYRECDMQLFGPWGEIVSPSLSPATSNAGGCRLFINVAPHARIAIHALATNMGAGTEGANASYILIRDTHSLRTTAFHGQQVLYWESESSQAEMEFSEGFLKAQASLRGQYWTLQSWVPEMQDPQSWKGKEGTSRGPFEQKLISEEDLNMHTGHHHHHH
proteolytic activity, FRETS-VWF73 assay: induces a similar constitutive activity to that seen with the A1144V, A1146V variants

B2: ADAMTS13 P1180K variant (Exemplified P1180K variant) (protein)
chain: AAGGILHLELLVAVGPDVFQAHQEDTERYVLTNLNIGAELLRDPSLGAQFRVHLVKMVILTEPEGAPNITANLTSSLLSVCGWSQTINPEDDTDPGHADLVLYITRFDLELPDGNRQVRGVTQLGGACSPTWSCLITEDTGFDLGVTIAHEIGHSFGLEHDGAPGSGCGPSGHVMASDGAAPRAGLAWSPCSRRQLLSLLSAGRARCVWDPPRPQPGSAGHPPDAQPGLYYSANEQCRVAFGPKAVACTFAREHLDMCQALSCHTDPLDQSSCSRLLVPLLDGTECGVEKWCSKGRCRSLVELTPIAAVHGRWSSWGPRSPCSRSCGGGVVTRRRQCNNPRPAFGGRACVGADLQAEMCNTQACEKTQLEFMSQQCARTDGQPLRSSPGGASFYHWGAAVPHSQGDALCRHMCRAIGESFIMKRGDSFLDGTRCMPSGPREDGTLSLCVSGSCRTFGCDGRMDSQQVWDRCQVCGGDNSTCSPRKGSFTAGRAREYVTFLTVTPNLTSVYIANHRPLFTHLAVRIGGRYVVAGKMSISPNTTYPSLLEDGRVEYRVALTEDRLPRLEEIRIWGPLQEDADIQVYRRYGEEYGNLTRPDITFTYFQPKPRQAWVWAAVRGPCSVSCGAGLRWVNYSCLDQARKELVETVQCQGSQQPPAWPEACVLEPCPPYWAVGDFGPCSASCGGGLRERPVRCVEAQGSLLKTLPPARCRAGAQQPAVALETCNPQPCPARWEVSEPSSCTSAGGAGLALENETCVPGADGLEAPVTEGPGSVDEKLPAPEPCVGMSCPPGWGHLDATSAGEKAPSPWGSIRTGAQAAHVWTPAAGSCSVSCGRGLMELRFLCMDSALRVPVQEELCGLASKPGSRREVCQAVPCPARWQYKLAACSVSCGRGVVRRILYCARAHGEDDGEEILLDTQCQGLPRPEPQEACSLEPCPPRWKVMSLGPCSASCGLGTARRSVACVQLDQGQDVEVDEAACAALVRPEASVPCLIADCTYRWHVGTWMECSVSCGDGIQRRRDTCLGPQAQAPVPADFCQHLPKPVTVRGCWAGPCVGQGTPSLVPHEEAAAPGRTTATPAGASLEWSQARGLLFSPAPQPRRLLKGPQENSVQSSACGRQHLEPTGTIDMRGPGQADCAVAIGRPLGEVVTLRVLESSLNCSAGDMLLLWGRLTWRKMCRKLLDMTFSSKTNTLVVRQRCGRPGGGVLLRYGSQLAPETFYRECDMQLFGPWGEIVSPSLSPATSNAGGCRLFINVAPHARIAIHALATNMGAGTEGANASYILIRDTHSLRTTAFHGQQVLYWESESSQAEMEFSEGFLKAQASLRGQYWTLQSWVPEMQDPQSWKGKEGTSRGPFEQKLISEEDLNMHTGHHHHHH
proteolytic activity, FRETS-VWF73 assay, fold increase: Induces greater than 10-fold increase in activity

B3: ADAMTS13 A1146I variant (Exemplified A1146I variant) (protein)
chain: AAGGILHLELLVAVGPDVFQAHQEDTERYVLTNLNIGAELLRDPSLGAQFRVHLVKMVILTEPEGAPNITANLTSSLLSVCGWSQTINPEDDTDPGHADLVLYITRFDLELPDGNRQVRGVTQLGGACSPTWSCLITEDTGFDLGVTIAHEIGHSFGLEHDGAPGSGCGPSGHVMASDGAAPRAGLAWSPCSRRQLLSLLSAGRARCVWDPPRPQPGSAGHPPDAQPGLYYSANEQCRVAFGPKAVACTFAREHLDMCQALSCHTDPLDQSSCSRLLVPLLDGTECGVEKWCSKGRCRSLVELTPIAAVHGRWSSWGPRSPCSRSCGGGVVTRRRQCNNPRPAFGGRACVGADLQAEMCNTQACEKTQLEFMSQQCARTDGQPLRSSPGGASFYHWGAAVPHSQGDALCRHMCRAIGESFIMKRGDSFLDGTRCMPSGPREDGTLSLCVSGSCRTFGCDGRMDSQQVWDRCQVCGGDNSTCSPRKGSFTAGRAREYVTFLTVTPNLTSVYIANHRPLFTHLAVRIGGRYVVAGKMSISPNTTYPSLLEDGRVEYRVALTEDRLPRLEEIRIWGPLQEDADIQVYRRYGEEYGNLTRPDITFTYFQPKPRQAWVWAAVRGPCSVSCGAGLRWVNYSCLDQARKELVETVQCQGSQQPPAWPEACVLEPCPPYWAVGDFGPCSASCGGGLRERPVRCVEAQGSLLKTLPPARCRAGAQQPAVALETCNPQPCPARWEVSEPSSCTSAGGAGLALENETCVPGADGLEAPVTEGPGSVDEKLPAPEPCVGMSCPPGWGHLDATSAGEKAPSPWGSIRTGAQAAHVWTPAAGSCSVSCGRGLMELRFLCMDSALRVPVQEELCGLASKPGSRREVCQAVPCPARWQYKLAACSVSCGRGVVRRILYCARAHGEDDGEEILLDTQCQGLPRPEPQEACSLEPCPPRWKVMSLGPCSASCGLGTARRSVACVQLDQGQDVEVDEAACAALVRPEASVPCLIADCTYRWHVGTWMECSVSCGDGIQRRRDTCLGPQAQAPVPADFCQHLPKPVTVRGCWAGPCVGQGTPSLVPHEEAAIPGRTTATPAGASLEWSQARGLLFSPAPQPRRLLPGPQENSVQSSACGRQHLEPTGTIDMRGPGQADCAVAIGRPLGEVVTLRVLESSLNCSAGDMLLLWGRLTWRKMCRKLLDMTFSSKTNTLVVRQRCGRPGGGVLLRYGSQLAPETFYRECDMQLFGPWGEIVSPSLSPATSNAGGCRLFINVAPHARIAIHALATNMGAGTEGANASYILIRDTHSLRTTAFHGQQVLYWESESSQAEMEFSEGFLKAQASLRGQYWTLQSWVPEMQDPQSWKGKEGTSRGPFEQKLISEEDLNMHTGHHHHHH
proteolytic activity, FRETS-VWF73 assay: induces a similar constitutive activity to that seen with the A1144V, A1146V variants

B4: ADAMTS13 P1180I variant (Exemplified P1180I variant) (protein)
chain: AAGGILHLELLVAVGPDVFQAHQEDTERYVLTNLNIGAELLRDPSLGAQFRVHLVKMVILTEPEGAPNITANLTSSLLSVCGWSQTINPEDDTDPGHADLVLYITRFDLELPDGNRQVRGVTQLGGACSPTWSCLITEDTGFDLGVTIAHEIGHSFGLEHDGAPGSGCGPSGHVMASDGAAPRAGLAWSPCSRRQLLSLLSAGRARCVWDPPRPQPGSAGHPPDAQPGLYYSANEQCRVAFGPKAVACTFAREHLDMCQALSCHTDPLDQSSCSRLLVPLLDGTECGVEKWCSKGRCRSLVELTPIAAVHGRWSSWGPRSPCSRSCGGGVVTRRRQCNNPRPAFGGRACVGADLQAEMCNTQACEKTQLEFMSQQCARTDGQPLRSSPGGASFYHWGAAVPHSQGDALCRHMCRAIGESFIMKRGDSFLDGTRCMPSGPREDGTLSLCVSGSCRTFGCDGRMDSQQVWDRCQVCGGDNSTCSPRKGSFTAGRAREYVTFLTVTPNLTSVYIANHRPLFTHLAVRIGGRYVVAGKMSISPNTTYPSLLEDGRVEYRVALTEDRLPRLEEIRIWGPLQEDADIQVYRRYGEEYGNLTRPDITFTYFQPKPRQAWVWAAVRGPCSVSCGAGLRWVNYSCLDQARKELVETVQCQGSQQPPAWPEACVLEPCPPYWAVGDFGPCSASCGGGLRERPVRCVEAQGSLLKTLPPARCRAGAQQPAVALETCNPQPCPARWEVSEPSSCTSAGGAGLALENETCVPGADGLEAPVTEGPGSVDEKLPAPEPCVGMSCPPGWGHLDATSAGEKAPSPWGSIRTGAQAAHVWTPAAGSCSVSCGRGLMELRFLCMDSALRVPVQEELCGLASKPGSRREVCQAVPCPARWQYKLAACSVSCGRGVVRRILYCARAHGEDDGEEILLDTQCQGLPRPEPQEACSLEPCPPRWKVMSLGPCSASCGLGTARRSVACVQLDQGQDVEVDEAACAALVRPEASVPCLIADCTYRWHVGTWMECSVSCGDGIQRRRDTCLGPQAQAPVPADFCQHLPKPVTVRGCWAGPCVGQGTPSLVPHEEAAAPGRTTATPAGASLEWSQARGLLFSPAPQPRRLLIGPQENSVQSSACGRQHLEPTGTIDMRGPGQADCAVAIGRPLGEVVTLRVLESSLNCSAGDMLLLWGRLTWRKMCRKLLDMTFSSKTNTLVVRQRCGRPGGGVLLRYGSQLAPETFYRECDMQLFGPWGEIVSPSLSPATSNAGGCRLFINVAPHARIAIHALATNMGAGTEGANASYILIRDTHSLRTTAFHGQQVLYWESESSQAEMEFSEGFLKAQASLRGQYWTLQSWVPEMQDPQSWKGKEGTSRGPFEQKLISEEDLNMHTGHHHHHH
proteolytic activity, FRETS-VWF73 assay, fold increase: Induces greater than 10-fold increase in activity
